Columns and labels:
[1] = substrate: NC(=O)c1ccc[n+]([C@@H]2O[C@H](COP(=O)([O-])OP(=O)(O)OC[C@H]3O[C@@H](n4cnc5c(N)ncnc54)[C@H](O)[C@@H]3O)[C@@H](O)[C@H]2O)c1; test: purified protein, by the assay type; details: other: Aplysia cyclase, substrate as labelled, pH 7.5
Protocol: hSARM1 species were routinely assayed by the NAD/NADH-Glo^TM Assay (Promega) while both Aplysia cyclase and CD38 were assayed by fluorometry using ϵNAD ([Orsomando et al., 2000]). […] Other reagents used in addition to, or in place of those above are detailed in text or in figure legends, for example metal ions, free bases, dinucleotide analogues, mononucleotides, and ribosides. Assays were all carried out at 25°C except for temperature studies. Reactions were stopped by HClO4/K2CO3 and analysed by C18-HPLC as reported ([Mori et al., 2014]). Only the acid labile NADH and NADPH were treated with 1 N NaOH and neutralized using 1:1 vol of 1.73 M KH2CO3 while the highly hydrophobic metabolites vacor, VAD, VMN and VR, were analysed by a modified C18-HPLC method ([Buonvicino et al., 2018]). Reaction products were quantified from peak areas (see Figure 2A) based on coelution with standards (except for cyclic products from NAD analogues that were not available and were attributed based on UV-spectra and retention times as predicted). Rates were calculated as follows. Hydrolysis and cyclization were measured from product generation from the respective individual dinucleotide substrate used, e.g., free and cyclic ADP-ribosyl moieties from NAD (Figure 1B). A basal value for hydrolysis/cyclization was taken as sum of these latter two products. […]

[2] = substrate: NC(=O)c1ccc[n+]([C@@H]2O[C@H](COP(=O)([O-])OP(=O)(O)OC[C@H]3O[C@@H](n4cnc5c(N)ncnc54)[C@H](O)[C@@H]3O)[C@@H](O)[C@H]2O)c1; test: purified protein, by the assay type; assay type: biochemical; details: other: hSARM1 SAM-TIR, pH 7.5
Protocol: (§1) hSARM1 species were routinely assayed by the NAD/NADH-Glo^TM Assay (Promega) while both Aplysia cyclase and CD38 were assayed by fluorometry using ϵNAD ([Orsomando et al., 2000]). […] Other reagents used in addition to, or in place of those above are detailed in text or in figure legends, for example metal ions, free bases, dinucleotide analogues, mononucleotides, and ribosides. Assays were all carried out at 25°C except for temperature studies. Reactions were stopped by HClO4/K2CO3 and analysed by C18-HPLC as reported ([Mori et al., 2014]). Only the acid labile NADH and NADPH were treated with 1 N NaOH and neutralized using 1:1 vol of 1.73 M KH2CO3 while the highly hydrophobic metabolites vacor, VAD, VMN and VR, were analysed by a modified C18-HPLC method ([Buonvicino et al., 2018]). Reaction products were quantified from peak areas (see Figure 2A) based on coelution with standards (except for cyclic products from NAD analogues that were not available and were attributed based on UV-spectra and retention times as predicted). Rates were calculated as follows. Hydrolysis and cyclization were measured from product generation from the respective individual dinucleotide substrate used, e.g., free and cyclic ADP-ribosyl moieties from NAD (Figure 1B). A basal value for hydrolysis/cyclization was taken as sum of these latter two products. In addition to that value, base exchange or transglycosidation was calculated from the expected dinucleotide analog formed in the presence of the corresponding free base, e.g., AcPyrAD from AcPyr and NAD.
(§2) The kinetic parameters were calculated from initial rates obtained from replicates via best-fitting analysis using the following Equation 1 for CD38 and Aplysia cyclase, or Equation 2 for hSARM1 SAM-TIR, or Equation 3 for hSARM1 full length(Equation 1) V =Vmax[S]/Km+[S]

[3] = substrate: NC(=O)c1ccc[n+]([C@@H]2O[C@H](COP(=O)([O-])OP(=O)(O)OC[C@H]3O[C@@H](n4cnc5c(N)ncnc54)[C@H](O)[C@@H]3O)[C@@H](O)[C@H]2O)c1; test: NAD(P)ase activity by HPLC (kinetics, substrates, metal ions); assay type: biochemical, human; details: other: hSARM1 full length
Protocol: as §1, §2

[4] = re-elaborated from Table 1, pH 7.5

B1: Aplysia californica ADP ribosyl cyclase (Aplysia californica) (protein)
chain: IVPTRELENVFLGRCKDYEITRYLDILPRVRSDCSALWKDFFKAFSFKNPCDLDLGSYKDFFTSAQQQLPKNKVMFWSGVYDEAHDYANTGRKYITLEDTLPGYMLNSLVWCGQRANPGFNEKVCPDFKTCPVQARESFWGMASSSYAHSAEGEVTYMVDGSNPKVPAYRPDSFFGKYELPNLTNKVTRVKVIVLHRLGEKIIEKCGAGSLLDLEKLVKAKHFAFDCVENPRAVLFLLCSDNPNARECRLAKRFYRIA
Km [1]: 212 ± 13.7 µM | Vmax [1]: 51.4 ± 1.24 µmol/min/mg

B2: hSARM1 SAM-TIR (Homo sapiens) (protein)
chain: VPSWKEAEVQTWLQQIGFSKYCESFREQQVDGDLLLRLTEEELQTDLGMKSGITRKRFFRELTELKTFANYSTCDRSNLADWLGSLDPRFRQYTYGLVSCGLDRSLLHRVSEQQLLEDCGIHLGVHRARILTAAREMLHSPLPCTGGKPSGDTPDVFISYRRNSGSQLASLLKVHLQLHGFSVFIDVEKLEAGKFEDKLIQSVMGARNFVLVLSPGALDKCMQDHDCKDWVHKEIVTALSCGKNIVPIIDGFEWPEPQVLPEDMQAVLTFNGIKWSHEYQEATIEKIIRFLQGRSSRDSSAGSDTSLEGAAPMGPT
notes: made in house
Km [2]: 69.5 ± 2.31 µM | Vmax [2]: 0.723 µmol/min/mg | kcat [2]: 0.448 ± 0.009 s⁻¹ | kcat/Km [2]: 6500 ± 350 M⁻¹ s⁻¹

B3: human SARM1 full length (Homo sapiens) (protein)
chain: LAVPGPDGGGGTGPWWAAGGRGPREVSPGAGTEVQDALERALPELQQALSALKQAGGARAVGAGLAEVFQLVEEAWLLPAVGREVAQGLCDAIRLDGGLDLLLRLLQAPELETRVQAARLLEQILVAENRDRVARIGLGVILNLAKEREPVELARSVAGILEHMFKHSEETCQRLVAAGGLDAVLYWCRRTDPALLRHCALALGNCALHGGQAVQRRMVEKRAAEWLFPLAFSKEDELLRLHACLAVAVLATNKEVEREVERSGTLALVEPLVASLDPGRFARCLVDASDTSQGRGPDDLQRLVPLLDSNRLEAQCIGAFYLCAEAAIKSLQGKTKVFSDIGAIQSLKRLVSYSTNGTKSALAKRALRLLGEEVPRPILPSVPSWKEAEVQTWLQQIGFSKYCESFREQQVDGDLLLRLTEEELQTDLGMKSGITRKRFFRELTELKTFANYSTCDRSNLADWLGSLDPRFRQYTYGLVSCGLDRSLLHRVSEQQLLEDCGIHLGVHRARILTAAREMLHSPLPCTGGKPSGDTPDVFISYRRNSGSQLASLLKVHLQLHGFSVFIDVEKLEAGKFEDKLIQSVMGARNFVLVLSPGALDKCMQDHDCKDWVHKEIVTALSCGKNIVPIIDGFEWPEPQVLPEDMQAVLTFNGIKWSHEYQEATIEKIIRFLQGRSSRDSSAGSDTSLEGAAPMGPT
notes: Human recombinant SARM1 full length proteins (wild-type and E642A mutant); made in house
Km ([3]; no NMN, pH 7.5): 30.3 ± 5.18 µM | Vmax ([3]; no NMN, pH 7.5): 0.0224 µmol/min/mg | kcat [3, 4]: 0.03 ± 0.007 s⁻¹ | kcat/Km [3, 4]: 1000 ± 350 M⁻¹ s⁻¹
